Data set [1] concerns pediatric high-grade glioma HSJD-GBM-001. Nature of the data set: cells. It counts as cell-based. Particulars: MTS, 72 h incubation, Example 11, Table 4, read-out: IC50 values of compounds. From the text: (§1) Cancer cell lines were obtained from the repository maintained at Hospital Sant Joan de Deu (Barcelona, Spain). Cancer cell lines used in these experiment included cancer types of adult glioma (U373 and U87 cell lines), pediatric gliomas including diffuse intrinsic pontine glioma (HSJD-DIPG-007, HSJD-DIPG-011), and pediatric high-grade glioma (HSJD-GBM-001), retinoblastoma (HSJD-RBT-5, HSJD-RBT-7 and HSJD-RBT-14), Ewing sarcoma (A673), rhabdomyosarcoma (Rd and RH4) and neuroblastoma (LAN-1 and SK-N-JD cell lines and HSJD-NB-004, HSJD-NB-005 and HSJD-NB-016 patient-derived cell models). Briefly, between 3000 and 30,000 cancer cells were cultured in 96 well plates and 24 h later the cells were exposed to compound SN38-linker A-MiniAp4 (Ia) (concentration range 1-0.00000001 μM), SN38 (concentration range 1-0.00000001 μM), or irinotecan (concentration range 100-0,000001 μM). To add the drugs to the cells in culture, SN38-linker A-MiniAp4 (Ia) and irinotecan were prepared in culture medium from stock solutions at concentration 1 mg/mL in water. SN38 was prepared in culture medium from a stock solution at concentration 1 mg/mL in DMSO. The tetrazolium compound [3-(4,5-dimethylthiazol-2-yl)-5-(3-carboxymethoxyphenyl)-2-(4-sulfophenyl)-2H-tetrazolium] (MTS assay; Promega, Fitchburg, WI) was used to determine cell viability after 72 h incubation with the drugs. The concentrations of drug required to cause a reduction of 50% in cell proliferation (IC50 and 95% confidence intervals) were calculated with Graphpad Prism 8 software (La Jolla, CA). Activity curves were built for adult glioma cell lines U87 (FIG. 1) and U373 (FIG. 2), pediatric gliomas including DIPG models HSJD-DIPG-007 (FIG. 3) and HSJD-DIPG-011 (FIG. 4), and pediatric high-grade glioma model HSJD-GBM-001 (FIG. 5), retinoblastoma models HSJD-RBT-5 (FIG. 6), HSJD-RBT-7 (FIG. 7) and HSJD-RBT-14 (FIG. 8), Ewing sarcoma cell line A673 (FIG. 9), rhabdomyosarcoma cell lines Rd (FIG. 10) and RH4 (FIG. 11), neuroblastoma cell lines LAN-1 (FIG. 12) and SK-N-JD (FIG. 13) and neuroblastoma patient-derived cell models HSJD-NB-004 (FIG. 14), HSJD-NB-005 (FIG. 15) and HSJD-NB-016 (FIG. 16). The established IC50 values are in Table 3.
The present inventors compared the activity of the new compound SN38 conjugated with MiniAp4 (SN38-linkerA-MiniAp4, example 7 also named G2B-001) and with SN38-linker B-THRre (comparative example 2). Original compound SN38 was used as reference. Cancer cell lines used in these experiments were pediatric gliomas including diffuse intrinsic pontine glioma HSJD-DIPG-007, and pediatric high-grade glioma HSJD-GBM-001. Briefly, 3000 cancer cells were cultured in 96 well plates and 24 h later the cells were exposed to compound compound (Ia) (concentration range 1-0.00000001 μM), SN38-Linker B-THRre (concentration range 1-0.00000001 μM), and SN38 (concentration range 1-0.00000001 μM). To add the drugs to the cells in culture, SN38-Linker A-MiniAp4 (Ia) and SN38-Linker B-THRre were prepared in culture medium from stock solutions at concentration 1 mg/mL in water. SN38 was prepared in culture medium from a stock solution at concentration 1 mg/mL in DMSO. The MTS assay was used to determine cell viability after 72 h incubation with the drugs. The concentrations of drug required to cause a reduction of 50% in cell proliferation (IC50 and 95% confidence intervals) were calculated with Graphpad Prism 8 software (La Jolla, CA). Activity curves were built for cells HSJD-DIPG-007 (FIG. 20) and HSJD-GBM-001 (FIG. 21). The established IC50 values are in Table 4.
Cancer cell lines used in these experiments were pediatric gliomas including diffuse intrinsic pontine glioma HSJD-DIPG-007, and pediatric high-grade glioma HSJD-GBM-001. Briefly, 3000 cancer cells were cultured in 96 well plates and 24 h later the cells were exposed to compounds (Ia), comparative example 1 and comparative example 2 (concentration range 1-0.001 μM for each of them). […]

Data set [2] has as its system diffuse intrinsic pontine glioma HSJD-DIPG-007. Nature of the data set: cells. The conditions noted are these: HSJD-DIPG-007, MTS, 72 h incubation.
Text: as §1, with “Briefly, between 3000 and 30,000 cancer cells were cultured in 96 well plates and 24 h later the cells were exposed to compound SN38-linker A-MiniAp4 (Ia) (concentration range 1-0.00000001 μM), SN38 (concentration range 1-0.00000001 μM), or irinotecan (concentration range 100-0,000001 μM).” left out, “The tetrazolium compound [3-(4,5-dimethylthiazol-2-yl)-5-(3-carboxymethoxyphenyl)-2-(4-sulfophenyl)-2H-tetrazolium] (MTS assay; Promega, Fitchburg, WI) was used to determine cell viability after 72 h incubation with the drugs. The concentrations of drug required to cause a reduction of 50% in cell proliferation (IC50 and 95% confidence intervals) were calculated with Graphpad Prism 8 software (La Jolla, CA).” left out
Cancer cell lines used in these experiments were pediatric gliomas including diffuse intrinsic pontine glioma HSJD-DIPG-007, and pediatric high-grade glioma HSJD-GBM-001. […] To add the drugs to the cells in culture, SN38-Linker A-MiniAp4 (Ia) and SN38-Linker B-THRre were prepared in culture medium from stock solutions at concentration 1 mg/mL in water. SN38 was prepared in culture medium from a stock solution at concentration 1 mg/mL in DMSO. […] Activity curves were built for cells HSJD-DIPG-007 (FIG. 20) and HSJD-GBM-001 (FIG. 21).
Cancer cell lines used in these experiments were pediatric gliomas including diffuse intrinsic pontine glioma HSJD-DIPG-007, and pediatric high-grade glioma HSJD-GBM-001. […] All compounds were prepared in culture medium from stock solutions at concentration 1 mg/mL in water. […] Activity curves were built for cells HSJD-DIPG-007 (FIG. 22) and HSJD-GBM-001 (FIG. 23).
Cancer cell line used in these experiment was HSJD-DIPG-007.

Data set [3] in a line: Evaluation of solubility in water. It counts as physicochemical. The conditions noted are these: at 1 mg/mL. As for the experimental part:
25 mg of SN38-linker A-MiniAp4 were dissolved in H2O, showing a completely transparent solution. This means that SN38-linker A-MiniAp4 has a solubility in water higher than 5 mg/mL, more than 400-fold the solubility in water described for SN38 (Mol. Pharmaceutics, 2016, 13, 379-390).

Data set [4] is described as follows: Stability in human plasma at 37° C. in vitro. It counts as in vitro ADME. The protocol: To assess the stability of the SN38-linker A-MiniAp4 (Ia) (example 7) in human, mouse, dog and rat plasma at 37° C., the compound was prepared at 200 μM in plasma samples in triplicates at each timepoint (0 h, 1 h, 4 h, 8 h and 24 h) for each species. Once the incubation was finalised, plasma proteins were immediately precipitated by adding chilly methanol (ratio 4:1, methanol:plasma) and tubes were shacked for few seconds (vortex). Samples were centrifuged at 3,000 rpm for 30 minutes at 4° C., supernatants were collected, transferred to the injection plate and injected to LC-MS system.
Compound recovery was determined by comparing the analyte response in a biological sample that is spiked with the analyte and processed, with the response in a methanol sample that is spiked with the analyte and processed.
Plasma stability assay was performed using blank plasma from untreated volunteers/animals. K2-EDTA was used as anticoagulant. Human blank plasma used was obtained from Hospital Sant Pau, mouse blank plasma used was obtained from Janvier, dog blank plasma used was obtained from Isoquimen and rat blank plasma used were obtained from Draconis Pharma.
To assess the stability of the G2B-001 lineal (Ib) (example 16) in human plasma at 37° C., the compound was prepared at 200 µM in plasma samples in triplicates at each timepoint (0 h, 0.5 h, 1 h, 2 h, 4 h, 8 h and 24 h). Once the incubation was finalised, plasma proteins were immediately precipitated by adding chilly methanol (ratio 4:1, methanol:plasma) and tubes were shacked for few seconds (vortex). Samples were centrifuged at 3,000 rpm for 30 minutes at 4° C., supernatants were collected, transferred to the injection plate and injected to LC-MS system. Compound recovery was determined by comparing the analyte response in a biological sample that is spiked with the analyte and processed, with the response in a methanol sample that is spiked with the analyte and processed.
Plasma stability assay was performed using blank plasma from untreated volunteers. K2-EDTA was used as anticoagulant. Human blank plasma used was obtained from Hospital Sant Pau.

Data set [5] relates to patient-derived xenograft of neuroblastoma HSJD-NB-013. The conditions noted are these: 6 doses of 100 mg/kg intravenous at days 1, 2, 3, 4, 5 and 8; one mouse, two tumors; until day 44.

The structures appear in SMILES notation. Like-named read-outs stand apart in the source and are kept apart here. *1 amine or outer side, *2 acyl side, *3 side chain or, on linkers, in order; H or OH if unused. Where a SMILES comes first, the peptide text is derived from it. Bridges are numbered along the chain shown (N, C = ends). [ ]: non-standard residue; d: D form. The star is where a group is joined. ξ: configuration not given here. X6 = CCc1c2c(nc3ccc(OC(=O)OCc4ccc(NC(=O)[C@H](CCCNC(N)=O)NC(=O)[C@@H](NC(=O)COCC(=O)*)C(C)C)cc4)cc13)-c1cc3c(c(=O)n1C2)COC(=O)[C@]3(O)CC; X3 = CCc1c2c(nc3ccc(O)cc13)-c1cc3c(c(=O)n1C2)COC(=O)[C@@]3(CC)OC(=O)CCCCn1cc(CCCC(=O)NCCCOCCOCCOCCSCN*)nn1; X5 = CCc1c2c(nc3ccc(OC(=O)CCCCn4cc(CCCC(=O)NCCCOCCOCCOCCSCN*)nn4)cc13)-c1cc3c(c(=O)n1C2)COC(=O)[C@]3(O)CC; X2 = CCc1c2c(nc3ccc(O)cc13)-c1cc3c(c(=O)n1C2)COC(=O)[C@@]3(CC)OC(=O)CCC(=O)*; X7 = CCc1c2c(nc3ccc(OC(=O)*)cc13)-c1cc3c(c(=O)n1C2)COC(=O)[C@]3(O)CC; X4 = CC(O)CC(N[*:1])C(=O)[*:2]; Suc = O=C(CCC(=O)[*:2])[*:1]; Nva = CCC[C@H](N)C(=O)O; ξE = NC(CCC(=O)O)C(=O)O; Dap = NC[C@H](N)C(=O)O; ξD = NC(CC(=O)O)C(=O)O; ξN = NC(=O)CC(N)C(=O)O; ξK = NCCCCC(N)C(=O)O; ξT = CC(O)C(N)C(=O)O; ξDap = NCC(N)C(=O)O; ξP = O=C(O)C1CCCN1; ξA = CC(N)C(=O)O

Take `CCc1c2c(nc3ccc(O)cc13)-c1cc3c(c(=O)n1C2)COC(=O)[C@@]3(CC)OC(=O)CCC(=O)N1CCC[C@@H]1C(=O)N[C@H](Cc1c[nH]c2ccccc12)C(=O)N[C@@H](C(=O)N1CCC[C@@H]1C(=O)N[C@H](CO)C(=O)N[C@H](Cc1c[nH]c2ccccc12)C(=O)N[C@H](CCSC)C(=O)N1CCC[C@@H]1C(=O)N1CCC[C@@H]1C(=O)N[C@H](CCCNC(=N)N)C(=O)N[C@H](Cc1c[nH]cn1)C(=O)N[C@@H](C(N)=O)[C@H](C)O)C(C)C` [Comparative Example 2, reference compound] (X2-[dP][dW][dV][dP][dS][dW][dM][dP][dP][dR][dH][dT]-NH2; N-terminus and C-terminus assumed): the IC50 (commonly the midpoint of a concentration-inhibition curve) was 60.6 nM in data set [1] and 104 nM in data set [2] (read-out: IC50 values of compounds, Example 11, Table 4).

In the case of `CCc1c2c(nc3ccc(O)cc13)-c1cc3c(c(=O)n1C2)COC(=O)[C@@]3(CC)OC(=O)CCCCn1cc(CCCC(=O)NCCCOCCOCCOCCSCNC(=O)CCC(=O)NC(CN)C(=O)NC(CCCCN)C(=O)NC(C)C(=O)N2CCCC2C(=O)NC(CCC(=O)O)C(=O)NC(C(=O)NC(C)C(=O)NC(CC(C)O)C(=O)NC(CC(N)=O)C(N)=O)C(C)O)nn1` (stereo partly shown) [G2B-001 lineal (Ib)] ({X3-Suc}-[ξDap][ξK][ξA][ξP][ξE][ξT][ξA][X4][ξN]-NH2), the solubility in water entry in data set [3] was “good solubility”. The half-life (commonly the time in which the quantity being followed falls by half) at 200 μM in data set [4] was above 24 h. Also, in data set [4] (24 h, read-out: % Recovery after 24 h in human plasma), the recovery at 24 h, 200 μM came out at 69.9%. In addition, in data set [2] (read-out: IC50 values, Example 25, Table 8), the IC50 was 36.8 nM.

Regarding `CCc1c2c(nc3ccc(OC(=O)CCCCn4cc(CCCC(=O)NCCCOCCOCCOCCSCNC(=O)CCC(=O)NC5CNC(=O)CC(C(N)=O)NC(=O)C(CC(C)O)NC(=O)C(C)NC(=O)C(C(C)O)NC(=O)C(CCC(=O)O)NC(=O)C6CCCN6C(=O)C(C)NC(=O)C(CCCCN)NC5=O)nn4)cc13)-c1cc3c(c(=O)n1C2)COC(=O)[C@]3(O)CC` (stereo partly shown) [G2B-003 (Ic)] ({X5-Suc}-[ξDap][ξK][ξA][ξP][ξE][ξT][ξA][X4][ξD]-NH2; lactam 1-9), the “antitumor response (tumor volume)” value in data set [5] was “measurable and long lasting antitumor response”. For the same compound, the solubility in water result in data set [3] was “good solubility”.

Take `CCc1c2c(nc3ccc(OC(=O)OCc4ccc(NC(=O)[C@H](CCCNC(N)=O)NC(=O)[C@@H](NC(=O)COCC(=O)N[C@H]5CNC(=O)C[C@@H](C(N)=O)NC(=O)[C@H](CC(C)C)NC(=O)[C@H](C)NC(=O)[C@H]([C@@H](C)O)NC(=O)[C@H](CCC(=O)O)NC(=O)[C@@H]6CCCN6C(=O)[C@H](C)NC(=O)[C@H](CCCCN)NC5=O)C(C)C)cc4)cc13)-c1cc3c(c(=O)n1C2)COC(=O)[C@]3(O)CC` [G2B-004 (Id)] (X6-[Dap]KAPETALD-NH2; lactam 1-9): the solubility in water entry in data set [3] was “good solubility”.

In the case of `CCC[C@H](NC(=O)CNC(=O)Oc1ccc2nc3c(c(CC)c2c1)Cn1c-3cc2c(c1=O)COC(=O)[C@]2(O)CC)C(=O)N1CCC[C@H]1C(=O)NCC(=O)N[C@H]1CNC(=O)C[C@@H](C(N)=O)NC(=O)[C@H](CC(C)C)NC(=O)[C@H](C)NC(=O)[C@H]([C@@H](C)O)NC(=O)[C@H](CCC(=O)O)NC(=O)[C@@H]2CCCN2C(=O)[C@H](C)NC(=O)[C@H](CCCCN)NC1=O` [G2B-005 (Ie)] (X7-G[Nva]PG[Dap]KAPETALD-NH2; lactam 5-13), in data set [3], the solubility in water entry is recorded as “good solubility”.

(Values after patent US20240285784A1, “PEPTIDIC CONJUGATES OF SN38 USEFUL IN THE TREATMENT OF CANCER” (FUNDACIÓ INSTITUT DE RECERCA BIOMÈDICA (IRB BARCELONA), priority 2020, published 2024).)
